The results in this text go back to US11402384B2 (Duke University, priority 2015, dated 2022).

The assay is described as follows: Ratiometric fluorescence glucose titration of fluorescent conjugates. Format: binding. Details: key to Shape (fluorescence response to glucose) / Change (fluorescence response to glucose): m, monochromatic; d, dichromatic (i.e. spectral shape change); 0, no change. Particulars: for fluorescence response to glucose: monochromatic or dichromatic emission change. The text has this:
Semi-synthetic FRSs can be engineered by site-specifically attaching thiol-reactive, environmentally sensitive fluorophores that respond to ligand-mediated conformational changes. Identification of FRS candidates that can be used for sensing applications comprises three steps: • 1. Cysteine scan. Mutant glucose-binding proteins containing single cysteines are constructed for site-specific attachment of thiol-reactive fluorophores. […] Candidate positions fall into three classes: endosteric, replacing a residue that contacts the ligand directly; peristeric, located at the rim of the binding site; allosteric (Marvin et al., 1997, Proc Natl Acad Sci USA, 94, 4366-71; Marvin, 1998, J Am Chem Soc, 120, 7-11), located outside the binding site at sites that undergo local structural changes in concert with the hinge-bending motion. • 2. Fluorophore screening. Thiol-reactive, environmentally sensitive fluorophores are attached to each cysteine mutant prepared in step 1. • 3. Evaluation of the glucose-mediated change of all the fluorescent conjugates prepared in step 2. Responses to ligand binding in which there is both a change in fluorescence emission intensity and spectral shape are essential for chemometric applications, because such changes enable ratiometric measurements. Changes in spectral shape typically are accompanied by a shift in the wavelength of the emission intensity maxima. Three classes of fluorescent responses are possible: • i. No response. • ii. Monochromatic response (emission intensity increases or decreases without a change in spectral shape) • iii.
Determination of temperature- and ligand-dependent fluorescence landscapes. […] Temperatures were advanced in 1K steps.
Determination of emission intensity spectra.
2 For a single glucose-binding site, the fractional saturation is given by […]

Where [1] appears, read: tsGBP2 cysteine scan, Acrylodan conjugate.
Setting [2] is: ttGBP1 homologs, 13C-equivalent mutants labeled with Acrylodan or Badan.
Where [3] appears, read: tsGBP2 cysteine scan, Badan conjugate.

“Also recorded” adds a separate entry of the source.

B1: E13C Acrylodan: tsGBP2_C13 (SEQ ID NO: 20) Acrylodan conjugate (conjugate)
chain: MKLEIFSWWAGDCGPALEALIRLYKQKYPGVEVINATVTGGAGVNAKAVLKTRMLGGDPPDTFQVHAGQELIGTWVVADRMEDLTSLFRQEGWLQAFPKGLIDLLSYKGGIWSVPVNIHRSNVMWYIPAKLKEWGVTPPKTWAEFLATAQTLKRKGLEAPLALGENWTQQHLWESVALATLGADGWNNLWSGKLKFTDPKAVAVWETFGKVLDAANKDAAGLSWQQAVDRVVQGKAAFNIMGDWAAGYMSTTLKLKPGTDFAWTPSPGTSGIFMMLSDSFGLPKGAKNRQNAINWLKLVGSKEGQDTFNPLKGSIAARLDSDPAKYNAYGQSAMKDWKSNRIVGSLVHGAVAPESFMSQFGTVMEIFLQSRNPQAAANAAQAIANQVGLGRGGSHHHHHH
modifications: Acrylodan conjugate; tsGBP2_C13 (13C substitution mutant with signal peptide replaced with M and a GGSHHHHHH at C-terminus)
Regarding B1, the “fluorescence response to glucose” value is, setting by setting: (listed as 13C.Acrylodan conjugate) “strong dichromatic response; also recorded: strongest dichromatic response”; (listed as Acrylodan conjugate attached to E13C) “largest, wavelength-dependent changes in fluorescence emission intensities”. Moreover, the “Shape (fluorescence response to glucose)” value by setting is: under setting [1], “d”; under setting [2], “d”.

B2: E13C Badan: tsGBP2_C13 (SEQ ID NO: 20) Badan conjugate (conjugate)
chain: MKLEIFSWWAGDCGPALEALIRLYKQKYPGVEVINATVTGGAGVNAKAVLKTRMLGGDPPDTFQVHAGQELIGTWVVADRMEDLTSLFRQEGWLQAFPKGLIDLLSYKGGIWSVPVNIHRSNVMWYIPAKLKEWGVTPPKTWAEFLATAQTLKRKGLEAPLALGENWTQQHLWESVALATLGADGWNNLWSGKLKFTDPKAVAVWETFGKVLDAANKDAAGLSWQQAVDRVVQGKAAFNIMGDWAAGYMSTTLKLKPGTDFAWTPSPGTSGIFMMLSDSFGLPKGAKNRQNAINWLKLVGSKEGQDTFNPLKGSIAARLDSDPAKYNAYGQSAMKDWKSNRIVGSLVHGAVAPESFMSQFGTVMEIFLQSRNPQAAANAAQAIANQVGLGRGGSHHHHHH
modifications: Badan conjugate; tsGBP2_C13 (13C substitution mutant with signal peptide replaced with M and a GGSHHHHHH at C-terminus)
B2: the “Shape (fluorescence response to glucose)” value is “m” under setting [3] and “m” under setting [2]. Besides, the “Change (fluorescence response to glucose)” value (tsGBP 13C affinity mutants, Acrylodan or Badan conjugates) is given as “m/d”.

B3: D12C Acrylodan: tsGBP2_C12 (SEQ ID NO: 19) Acrylodan conjugate (conjugate)
chain: MKLEIFSWWAGCEGPALEALIRLYKQKYPGVEVINATVTGGAGVNAKAVLKTRMLGGDPPDTFQVHAGQELIGTWVVADRMEDLTSLFRQEGWLQAFPKGLIDLLSYKGGIWSVPVNIHRSNVMWYIPAKLKEWGVTPPKTWAEFLATAQTLKRKGLEAPLALGENWTQQHLWESVALATLGADGWNNLWSGKLKFTDPKAVAVWETFGKVLDAANKDAAGLSWQQAVDRVVQGKAAFNIMGDWAAGYMSTTLKLKPGTDFAWTPSPGTSGIFMMLSDSFGLPKGAKNRQNAINWLKLVGSKEGQDTFNPLKGSIAARLDSDPAKYNAYGQSAMKDWKSNRIVGSLVHGAVAPESFMSQFGTVMEIFLQSRNPQAAANAAQAIANQVGLGRGGSHHHHHH
modifications: Acrylodan conjugate; tsGBP2_C12 (12C substitution mutant with signal peptide replaced with M and a GGSHHHHHH at C-terminus)
Regarding B3, the “Shape (fluorescence response to glucose)” value under setting [1] was “m”.

B4: G41C Acrylodan: tsGBP2_C41 (SEQ ID NO: 21) Acrylodan conjugate (conjugate)
chain: MKLEIFSWWAGDEGPALEALIRLYKQKYPGVEVINATVTGCAGVNAKAVLKTRMLGGDPPDTFQVHAGQELIGTWVVADRMEDLTSLFRQEGWLQAFPKGLIDLLSYKGGIWSVPVNIHRSNVMWYIPAKLKEWGVTPPKTWAEFLATAQTLKRKGLEAPLALGENWTQQHLWESVALATLGADGWNNLWSGKLKFTDPKAVAVWETFGKVLDAANKDAAGLSWQQAVDRVVQGKAAFNIMGDWAAGYMSTTLKLKPGTDFAWTPSPGTSGIFMMLSDSFGLPKGAKNRQNAINWLKLVGSKEGQDTFNPLKGSIAARLDSDPAKYNAYGQSAMKDWKSNRIVGSLVHGAVAPESFMSQFGTVMEIFLQSRNPQAAANAAQAIANQVGLGRGGSHHHHHH
modifications: Acrylodan conjugate; tsGBP2_C41 (41C substitution mutant with signal peptide replaced with M and a GGSHHHHHH at C-terminus)
Consider B4, for which the “Shape (fluorescence response to glucose)” value under setting [1] is given as “d”.

B5: D12C Badan: tsGBP2_C12 (SEQ ID NO: 19) Badan conjugate (conjugate)
chain: MKLEIFSWWAGCEGPALEALIRLYKQKYPGVEVINATVTGGAGVNAKAVLKTRMLGGDPPDTFQVHAGQELIGTWVVADRMEDLTSLFRQEGWLQAFPKGLIDLLSYKGGIWSVPVNIHRSNVMWYIPAKLKEWGVTPPKTWAEFLATAQTLKRKGLEAPLALGENWTQQHLWESVALATLGADGWNNLWSGKLKFTDPKAVAVWETFGKVLDAANKDAAGLSWQQAVDRVVQGKAAFNIMGDWAAGYMSTTLKLKPGTDFAWTPSPGTSGIFMMLSDSFGLPKGAKNRQNAINWLKLVGSKEGQDTFNPLKGSIAARLDSDPAKYNAYGQSAMKDWKSNRIVGSLVHGAVAPESFMSQFGTVMEIFLQSRNPQAAANAAQAIANQVGLGRGGSHHHHHH
modifications: Badan conjugate; tsGBP2_C12 (12C substitution mutant with signal peptide replaced with M and a GGSHHHHHH at C-terminus)
Consider B5, for which, under setting [3], the “Shape (fluorescence response to glucose)” value is given as “m”.

B6: W244C Acrylodan: tsGBP2_C244 (SEQ ID NO: 30) Acrylodan conjugate (conjugate)
chain: MKLEIFSWWAGDEGPALEALIRLYKQKYPGVEVINATVTGGAGVNAKAVLKTRMLGGDPPDTFQVHAGQELIGTWVVADRMEDLTSLFRQEGWLQAFPKGLIDLLSYKGGIWSVPVNIHRSNVMWYIPAKLKEWGVTPPKTWAEFLATAQTLKRKGLEAPLALGENWTQQHLWESVALATLGADGWNNLWSGKLKFTDPKAVAVWETFGKVLDAANKDAAGLSWQQAVDRVVQGKAAFNIMGDCAAGYMSTTLKLKPGTDFAWTPSPGTSGIFMMLSDSFGLPKGAKNRQNAINWLKLVGSKEGQDTFNPLKGSIAARLDSDPAKYNAYGQSAMKDWKSNRIVGSLVHGAVAPESFMSQFGTVMEIFLQSRNPQAAANAAQAIANQVGLGRGGSHHHHHH
modifications: Acrylodan conjugate; tsGBP2_C244 (244C substitution mutant with signal peptide replaced with M and a GGSHHHHHH at C-terminus)
Turning to B6, the “fluorescence response to glucose” value is “strong monochromatic response”. The “Shape (fluorescence response to glucose)” value under setting [1] is “m”.
